In publication PMC9105384, “Ethyl Gallate Dual-Targeting PTPN6 and PPARγ Shows Anti-Diabetic and Anti-Obese Effects” (International Journal of Molecular Sciences, 2022):

Substrate: Cc1cc(=O)oc2c(F)c(OP(=O)(O)O)c(F)cc12
Assay: purified protein, by the assay type
Design: DiFMUP hydrolysis by purified PTPs, fluorescence Ex355/Em460, initial rates over 10 min; Michaelis-Menten and Lineweaver-Burk Km
Description: The enzymatic activity of each PTP was evaluated using 6,8-difluoro-4-methylumbelliferyl phosphate (DiFMUP) as the surrogate substrate. To reach within the range of the initial rate (v0) during the measurement for 10 min, the pH and concentration of each PTP were optimized and are listed in Table S3. To determine the Km values, each PTP with optimized concentration was added to the reaction buffer (20 mM Bis-Tris at pH 6.0 or Tris at pH 7.0 and 8.0, 150 mM NaCl, 2.5 mM dithiothreitol (DTT), 0.01% Triton X-100) containing various concentrations of DiFMUP to obtain a final volume of 100 μL in a 96-well plate. Fluorescence intensities were measured once every minute for a complete 10 min duration using a Victor™ X4 Multilabel Plate Reader (Perkin Elmer, Waltham, MA, USA) at excitation/emission = 355 nm/460 nm. The initial rates of the reaction were determined using a previously described procedure for calculating the amount of product formation. To screen a library of 1033 natural products (Chengdu Biopurify Phytochemicals Ltd., Chengdu, China) against 20 PTPs, each PTP with an optimized concentration was added to the reaction buffer with an optimized pH containing DiFMUP (2 × Km for each PTP) after adding each compound (20 μM). […] The IC50 values were estimated using a sigmoid plot in GraphPad Prism 5 software (GraphPad Software Inc., San Diego, CA, USA). The Hill coefficient (nH), the degree of cooperativity, was calculated according to a previously published method. To determine the inhibition constant (Ki) and identify the inhibition mode of EG, various concentrations of EG (2.5, 5, 10, and 20 μM) were assayed with various concentrations of DiFMUP (260, 130, 65, and 32.5 μM). Kinetic parameters were obtained using Dixon plots for Ki and Lineweaver-Burk plots for the inhibition mode.

B1: DUSP9 (Homo sapiens) (protein)
chain: MEGLGRSCLWLRRELSPPRPRLLLLDCRSRELYESARIGGALSVALPALLLRRLRRGSLSVRALLPGPPLQPPPPAPVLLYDQGGGRRRRGEAEAEAEEWEAESVLGTLLQKLREEGYLAYYLQGGFSRFQAECPHLCETSLAGRAGSSMAPVPGPVPVVGLGSLCLGSDCSDAESEADRDSMSCGLDSEGATPPPVGLRASFPVQILPNLYLGSARDSANLESLAKLGIRYILNVTPNLPNFFEKNGDFHYKQIPISDHWSQNLSRFFPEAIEFIDEALSQNCGVLVHCLAGVSRSVTVTVAYLMQKLHLSLNDAYDLVKRKKSNISPNFNFMGQLLDFERSLRLEERHSQEQGSGGQASAASNPPSFFTTPTSDGAFELAPT
With B1 the Km was 35.0 µM.

B2: PTPN21 (Homo sapiens) (protein)
chain: MPLPFGLKLKRTRRYTVSSKSCLVARIQLLNNEFVEFTLSVESTGQESLEAVAQRLELREVTYFSLWYYNKQNQRRWVDLEKPLKKQLDKYALEPTVYFGVVFYVPSVSQLQQEITRYQYYLQLKKDILEGSIPCTLEQAIQLAGLAVQADFGDFDQYESQDFLQKFALFPVGWLQDEKVLEEATQKVALLHQKYRGLTAPDAEMLYMQEVERMDGYGEESYPAKDSQGSDISIGACLEGIFVKHKNGRHPVVFRWHDIANMSHNKSFFALELANKEETIQFQTEDMETAKYIWRLCVARHKFYRLNQCNLQTQTVTVNPIRRRSSSRMSLPKPQPYVMPPPPQLHYNGHYTEPYASSQDNLFVPNQNGYYCHSQTSLDRAQIDLNGRIRNGSVYSAHSTNSLNNPQPYLQPSPMSSNPSITGSDVMRPDYLPSHRHSAVIPPSYRPTPDYETVMKQLNRGLVHAERQSHSLRNLNIGSSYAYSRPAALVYSQPEIREHAQLPSPAAAHCPFSLSYSFHSPSPYPYPAERRPVVGAVSVPELTNAQLQAQDYPSPNIMRTQVYRPPPPYPPPRPANSTPDLSRHLYISSSNPDLITRRVHHSVQTFQEDSLPVAHSLQEVSEPLTAARHAQLHKRNSIEVAGLSHGLEGLRLKERTLSASAAEVAPRAVSVGSQPSVFTERTQREGPEEAEGLRYGHKKSLSDATMLIHSSEEEEDEDFEEESGARAPPARAREPRPGLAQDPPGCPRVLLAGPLHILEPKAHVPDAEKRMMDSSPVRTTAEAQRPWRDGLLMPSMSESDLTTSGRYRARRDSLKKRPVSDLLSGKKNIVEGLPPLGGMKKTRVDAKKIGPLKLAALNGLSLSRVPLPDEGKEVATRATNDERCKILEQRLEQGMVFTEYERILKKRLVDGECSTARLPENAERNRFQDVLPYDDVRVELVPTKENNTGYINASHIKVSVSGIEWDYIATQGPLQNTCQDFWQMVWEQGIAIIAMVTAEEEGGREKSFRYWPRLGSRHNTVTYGRFKITTRFRTDSGCYATTGLKMKHLLTGQERTVWHLQYTDWPEHGCPEDLKGFLSYLEEIQSVRRHTNSTSDPQSPNPPLLVHCSAGVGRTGVVILSEIMIACLEHNEVLDIPRVLDMLRQQRMMLVQTLCQYTFVYRVLIQFLKSSRLI
Work on B2 yielded a Km of 46.7 µM.

B3: DUSP3 (Homo sapiens) (protein)
chain: MSGSFELSVQDLNDLLSDGSGCYSLPSQPCNEVTPRIYVGNASVAQDIPKLQKLGITHVLNAAEGRSFMHVNTNANFYKDSGITYLGIKANDTQEFNLSAYFERAADFIDQALAQKNGRVLVHCREGYSRSPTLVIAYLMMRQKMDVKSALSIVRQNREIGPNDGFLAQLCQLNDRLAKEGKLKP
Work on B3 yielded a Km of 100.0 µM.

B4: PTPN18 (Homo sapiens) (protein)
chain: MSRSLDSARSFLERLEARGGREGAVLAGEFSDIQACSAAWKADGVCSTVAGSRPENVRKNRYKDVLPYDQTRVILSLLQEEGHSDYINGNFIRGVDGSLAYIATQGPLPHTLLDFWRLVWEFGVKVILMACREIENGRKRCERYWAQEQEPLQTGLFCITLIKEKWLNEDIMLRTLKVTFQKESRSVYQLQYMSWPDRGVPSSPDHMLAMVEEARRLQGSGPEPLCVHCSAGCGRTGVLCTVDYVRQLLLTQMIPPDFSLFDVVLKMRKQRPAAVQTEEQYRFLYHTVAQMFCSTLQNASPHYQNIKENCAPLYDDALFLRTPQALLAIPRPPGGVLRSISVPGSPGHAMADTYAVVQKRGAPAGAGSGTQTGTGTGTGARSAEEAPLYSKVTPRAQRPGAHAEDARGTLPGRVPADQSPAGSGAYEDVAGGAQTGGLGFNLRIGRPKGPRDPPAEWTRV
With B4 the Km was 5.5 µM.

B5: PTPN12 (Homo sapiens) (protein)
chain: MEQVEILRKFIQRVQAMKSPDHNGEDNFARDFMRLRRLSTKYRTEKIYPTATGEKEENVKKNRYKDILPFDHSRVKLTLKTPSQDSDYINANFIKGVYGPKAYVATQGPLANTVIDFWRMIWEYNVVIIVMACREFEMGRKKCERYWPLYGEDPITFAPFKISCEDEQARTDYFIRTLLLEFQNESRRLYQFHYVNWPDHDVPSSFDSILDMISLMRKYQEHEDVPICIHCSAGCGRTGAICAIDYTWNLLKAGKIPEEFNVFNLIQEMRTQRHSAVQTKEQYELVHRAIAQLFEKQLQLYEIHGAQKIADGVNEINTENMVSSIEPEKQDSPPPKPPRTRSCLVEGDAKEEILQPPEPHPVPPILTPSPPSAFPTVTTVWQDNDRYHPKPVLHMVSSEQHSADLNRNYSKSTELPGKNESTIEQIDKKLERNLSFEIKKVPLQEGPKSFDGNTLLNRGHAIKIKSASPCIADKISKPQELSSDLNVGDTSQNSCVDCSVTQSNKVSVTPPEESQNSDTPPRPDRLPLDEKGHVTWSFHGPENAIPIPDLSEGNSSDINYQTRKTVSLTPSPTTQVETPDLVDHDNTSPLFRTPLSFTNPLHSDDSDSDERNSDGAVTQNKTNISTASATVSAATSTESISTRKVLPMSIARHNIAGTTHSGAEKDVDVSEDSPPPLPERTPESFVLASEHNTPVRSEWSELQSQERSEQKKSEGLITSENEKCDHPAGGIHYEMCIECPPTFSDKREQISENPTEATDIGFGNRCGKPKGPRDPPSEWT
With B5 the Km was 75.8 µM.

B6: DUSP14 (Homo sapiens) (protein)
chain: MSSRGHSTLPRTLMAPRMISEGDIGGIAQITSSLFLGRGSVASNRHLLQARGITCIVNATIEIPNFNWPQFEYVKVPLADMPHAPIGLYFDTVADKIHSVSRKHGATLVHCAAGVSRSATLCIAYLMKFHNVCLLEAYNWVKARRPVIRPNVGFWRQLIDYERQLFGKSTVKMVQTPYGIVPDVYEKESRHLMPYWGI
Work on B6 yielded a Km of 55.0 µM.

B7: PTPN14 (Homo sapiens) (protein)
chain: MPFGLKLRRTRRYNVLSKNCFVTRIRLLDSNVIECTLSVESTGQECLEAVAQRLELRETHYFGLWFLSKSQQARWVELEKPLKKHLDKFANEPLLFFGVMFYVPNVSWLQQEATRYQYYLQVKKDVLEGRLRCTLDQVIRLAGLAVQADFGDYNQFDSQDFLREYVLFPMDLALEEAVLEELTQKVAQEHKAHSGILPAEAELMYINEVERLDGFGQEIFPVKDNHGNCVHLGIFFMGIFVRNRIGRQAVIYRWNDMGNITHNKSTILVELINKEETALFHTDDIENAKYISRLFATRHKFYKQNKICTEQSNSPPPIRRQPTWSRSSLPRQQPYILPPVHVQCGEHYSETHTSQDSIFHGNEEALYCNSHNSLDLNYLNGTVTNGSVCSVHSVNSLNCSQSFIQASPVSSNLSIPGSDIMRADYIPSHRHSAIIVPSYRPTPDYETVMRQMKRGILHTDSQSQSLRNLNIINTHAYNQPEDLVYSQPEMRERHPYTVPYGPQGVYSNKLVSPSDQRNPKNNVVPSKPGASAISHTVSTPELANMQLQGSHNYSTAHMLKNYLFRPPPPYPRPRPATSTPDLASHRHKYVSGSSPDLVTRKVQLSVKTFQEDSSPVVHQSLQEVSEPLTATKHHGTVNKRHSLEVMNSMVRGMEAMTLKSLHLPMARRNTLREQGPPEEGSGSHEVPQLPQYHHKKTFSDATMLIHSSESEEEEEEAPESVPQIPMLREKMEYSAQLQAALARIPNKPPPEYPGPRKSVSNGALRQDQASLPPAMARARVLRHGPAKAISMSRTDPPAVNGASLGPSISEPDLTSVKERVKKEPVKERPVSEMFSLEDSIIEREMMIRNLEKQKMAGLEAQKRPLMLAALNGLSVARVSGREENRVDATRVPMDERFRTLKKKLEEGMVFTEYEQIPKKKANGIFSTAALPENAERSRIREVVPYEENRVELIPTKENNTGYINASHIKVVVGGAEWHYIATQGPLPHTCHDFWQMVWEQGVNVIAMVTAEEEGGRTKSHRYWPKLGSKHSSATYGKFKVTTKFRTDSVCYATTGLKVKHLLSGQERTVWHLQYTDWPDHGCPEDVQGFLSYLEEIQSVRRHTNSMLEGTKNRHPPIVVHCSAGVGRTGVLILSELMIYCLEHNEKVEVPMMLRLLREQRMFMIQTIAQYKFVYQVLIQFLQNSRLI
B7 was tested, and the Km was 423.7 µM.

B8: DUSP15 (Homo sapiens) (protein)
chain: MTEGVLPGLYLGNFIDAKDLDQLGRNKITHIISIHESPQPLLQDITYLRIPVADTPEVPIKKHFKECINFIHCCRLNGGNCLVHCFAGISRSTTIVTAYVMTVTGLGWRDVLEAIKATRPIANPNPGFRQQLEEFGWASSQKGARHRTSKTSGAQCPPMTSATCLLAARVALLSAALVREATGRTAQRCRLSPRAAAERLLGPPPHVAAGWSPDPKYQICLCFGEEDPGPTQHPKEQLIMADVQVQLRPGSSSCTLSASTERPDGSSTPGNPDGITHLQCSCLHPKRAASSSCTR
With B8 the Km was 9.1 µM.

B9: DUSP22 (Homo sapiens) (protein)
chain: MGNGMNKILPGLYIGNFKDARDAEQLSKNKVTHILSVHDSARPMLEGVKYLCIPAADSPSQNLTRHFKESIKFIHECRLRGESCLVHCLAGVSRSVTLVIAYIMTVTDFGWEDALHTVRAGRSCANPNVGFQRQLQEFEKHEVHQYRQWLKEEYGESPLQDAEEAKNILAAPGILKFWAFLRRL
B9 gave a Km of 13.0 µM.

B10: DUSP18 (Homo sapiens) (protein)
chain: MTAPSCAFPVQFRQPSVSGLSQITKSLYISNGVAANNKLMLSSNQITMVINVSVEVVNTLYEDIQYMQVPVADSPNSRLCDFFDPIADHIHSVEMKQGRTLLHCAAGVSRSAALCLAYLMKYHAMSLLDAHTWTKSCRPIIRPNSGFWEQLIHYEFQLFGKNTVHMVSSPVGMIPDIYEKEVRLMIPL
With B10 the Km was 29.0 µM.
